Results: US20200199244A1 (published 2020)
Where a chain is given by its changes, count along the chain named. Several values for one entry are separate records, joined by “and”; a condition that tells them apart may be missing. Identical values can stand only once.

B1: BMS3h-217-1 (other)
VL: NIQMTQSPSSLSASVGDRVTITCRASHFIGTLLTWYQHKPGKAPKLLITYGSLLQSGVPSRFSGSGSGTDFTLTISSLQPEDFATYYCGQGVLWPATFGQGTKVEIKR
notes: dAb, single VK
B2: BMS3h-217-3 (other)
VL: B1 VL with N1D, S12T, T34S, H38Q, I48V, S77N, A96P, I106N, K107I
notes: dAb, single VK
B3: BMS3h-217-9 (other)
VL: B1 VL with N1D, T34S, L53M
notes: dAb, single VK
B4: BMS3h-217-7 (other)
VL: B1 VL with N1D, T31S, T34S
notes: dAb, single VK
B5: BMS3h-217-23 (other)
VL: B1 VL with N1D, T31S, T34S, H38V, K103T
notes: dAb, single VK
B6: BMS3h-217-17 (other)
VL: B1 VL with N1D, M4I, T5I, T34S, H38Q, A96P
notes: dAb, single VK
B7: BMS3h-217-16 (other)
VL: B1 VL with N1D, T34S, H38Q, G41R, A96P
notes: dAb, single VK
B8: BMS3h-217-2 (other)
VL: B1 VL with N1D, T34S, H38Q, G41R, Q79H, A96P
notes: dAb, single VK
B9: BMS3h-217-8 (other)
VL: B1 VL with N1D, T34S
notes: dAb, single VK
B10: BMS3h-217-15 (other)
VL: B1 VL with N1D, S12Y, A25V, T34S, H38Q, T74S, A96P, R108Q
notes: dAb, single VK
B11: BMS3h-56-7 (other)
VH: EVQLLESGGGLVQPGGSLRLSCAASGFTFRDYEMWWVRQAPGKGLERVSAINPQGTRTYYADSVKGRFTISRDNSKNTLYLQMNSLRAEDTSVYHCAKPPFIFGDWGPGTLVTVSS
notes: dAb, single VH
B12: BMS3h-56-19 (other)
VH: B11 VH with S92A, P99L, I102T, G104E, P108Q
notes: dAb, single VH
B13: BMS3h-56-31 (other)
VH: EVQLLESGGGLVQPGGSLRLSCAASGFTFAGYEMWWFRQAPGKGLERVSAINPQGTRTYYADSVMGRFTISRDNSKNTLYLQMNSLRAEDTAVYYCAKLPFMFDDRGQGTLVTVSS
notes: dAb, single VH
B14: BMS3h-56-23 (other)
VH: B13 VH with A30R, G31D, F37V, L99E, F101Y, M102S, D105S, R106W
notes: dAb, single VH
B15: BMS3h-56-16 (other)
VH: B13 VH with A30R, G31D, F37V, M102T, D104E, R106W
notes: dAb, single VH
B16: BMS3h-56-20 (other)
VH: B11 VH with S92A, H95Y, A97T, P99L, I102T, G104E, P108Q
notes: dAb, single VH
B17: BMS3h-56-8 (other)
VH: B11 VH with L18R, S92A, H95Y, P99L, I102T, G104E, P108Q
notes: dAb, single VH
B18: BMS3h-56-26 (other)
VH: B13 VH with A30R, G31D, F37V, Q39R
notes: dAb, single VH
B19: BMS3h-56-29 (other)
VH: B13 VH with M34L, F37V
notes: dAb, single VH
B20: BMS3h-56-25 (other)
VH: B13 VH with A30R, G31D, F37V, Q39R, M102T, R106W
notes: dAb, single VH
B21: BMS3h-56-21 (other)
VH: B11 VH with S92A, H95Y, A97L, P99L, I102T, G104E, P108Q
notes: dAb, single VH
B22: BMS3h-56-28 (other)
VH: B13 VH with M34L, F37V, M102T, R106W
notes: dAb, single VH
B23: BMS3h-56-18 (other)
VH: B11 VH with G44V, T78M, S92A, H95Y, P99L, I102T, G104E, P108Q
notes: dAb, single VH
B24: BMS3h-56-17 (other)
VH: B13 VH with T28S, A30R, G31D, F37Y, M65K, M102T, D104E, R106W
notes: dAb, single VH
B25: BMS3h-56-24 (other)
VH: B11 VH with K65M, S92A, P99E, F101Y, I102S, F103Y, G104D, D105Y, P108Q
notes: dAb, single VH
B26: BMS3h-56-22 (other)
VH: B11 VH with E89D, S92A, A97T, P99L, G104E, D105Y, P108Q
notes: dAb, single VH
B27: BMS3h-56-30 (other)
VH: B13 VH with M102T, R106W
notes: dAb, single VH
B28: BMS3h-193-2506 (other)
VL: DIQMTQSPSSLSASVGDRVTITCRASQQIGRRLNWYQQKPGKAPRLLIYLATRLQSGVPSRFSGSGSGTDFTLTISSLQPEDFATYYCHQYESPPLTFGQGTKVEIKR
notes: domain antibody (dAb): single human V kappa domain
B29: BMS3h-193-2513 (other)
VL: B28 VL with Q27E, Q28A
notes: as for B28
B30: BMS3h-193-2512 (other)
VL: B28 VL with Q27E, Q28V
notes: as for B28
B31: BMS3h-193-2505 (other)
VL: B28 VL with Q27E, Q28R
notes: as for B28
B32: BMS3h-193-2503 (other)
VL: B28 VL with Q27S, Q28T
notes: as for B28
B33: BMS3h-193-2502 (other)
VL: B28 VL with Q27F, Q28P, G30D
notes: as for B28
B34: BMS3h-193-2514 (other)
VL: B28 VL with Q27T, Q28S, G30A
notes: as for B28
B35: BMS3h-193-2516 (other)
VL: B28 VL with Q28T, G30E, A51S, T52S, R53K
notes: as for B28
B36: BMS3h-193-2511 (other)
VL: B28 VL with Q28N, R31T
notes: as for B28
B37: BMS3h-193-2510 (other)
VL: B28 VL with Q28S
notes: as for B28
B38: BMS3h-193-2501 (other)
VL: B28 VL with Q28T, G30E, Y91F, S93H
notes: as for B28
B39: BMS3h-193-2504 (other)
VL: B28 VL with Q27S
notes: as for B28
B40: BMS3h-193-2515 (other)
VL: B28 VL with Q27L, Q28N
notes: as for B28
B41: BMS3h-193-2507 (other)
VL: B28 VL with Q28P, G30A
notes: as for B28
B42: BMS3h-38-201 (other)
VH: EVQLLASGGGLVQPGGSLRLSCAASGFTFEEEEMIWVRQAPGKGLEWVSAISGSGGSTYYADSVKGRFTISRDNSKNTLYLQMNSLRAEDTAVYYCGKEPFYYDYWGQGTLVTVSS
notes: domain antibody (dAb): single human VH domain
B43: BMS3h-38-203 (other)
VH: B42 VH with E32K, Y102F
notes: as for B42
B44: BMS3h-38-223 (other)
VH: B42 VH with Y102M
notes: as for B42
B45: BMS3h-38-205 (other)
VH: B42 VH with E30F, E31A, E32A, Y102R
notes: as for B42
B46: BMS3h-38-226 (other)
VH: B42 VH with F101L
notes: as for B42
B47: BMS3h-38-209 (other)
VH: B42 VH with G53R, S54L, G56W, Y102R
notes: as for B42
B48: BMS3h-38-225 (other)
VH: B42 VH with S57G, Y102R
notes: as for B42
B49: BMS3h-38-231 (other)
VH: B42 VH with T28P, G53R, S54Q, G56W, Y102R
notes: as for B42
B50: BMS3h-38-217 (other)
VH: B42 VH with G53R, S54R, G56Y, Y102R
notes: as for B42
B51: BMS3h-38-224 (other)
VH: B42 VH with Y102P
notes: as for B42
B52: BMS3h-38-218 (other)
VH: B42 VH with G53R, S54H, G56W, Y102R
notes: as for B42
B53: BMS3h-38-237 (other)
VH: B42 VH with G53R, S54G, G56W, Y102R
notes: as for B42
B54: BMS3h-38-202 (other)
VH: B42 VH with Y103F
notes: as for B42
B55: BMS3h-38-235 (other)
VH: B42 VH with G53R, S54N, G56Y, Y102R
notes: as for B42
B56: BMS3h-38-215 (other)
VH: B42 VH with S54L, G56W, Y102R
notes: as for B42
B57: BMS3h-38-204 (other)
VH: B42 VH with E30P, E31Q, Y102R
notes: as for B42
B58: BMS3h-38-228 (other)
VH: B42 VH with G53R, S54N, G56F, Y102R
notes: as for B42

Each binder was assayed against T1, human CD40 (BMS, CY24FEB06-01) (human, UniProt P25942 21-193) (assay: ELISA RBA, competition with IZ-CD40L;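 note: Neutravidin-coated 384-well plate, dAb–human CD40 complex bound for 2 h at room temperature, absorbance read at 450 nm after HCl stop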).
T1 construct: Soluble reagent of the bead and ELISA RBA; It is detected with an anti-human IgG (Fc) mAb, so it may be a CD40-Ig fusion
T1 sequence (P25942 21-193 limits assumed): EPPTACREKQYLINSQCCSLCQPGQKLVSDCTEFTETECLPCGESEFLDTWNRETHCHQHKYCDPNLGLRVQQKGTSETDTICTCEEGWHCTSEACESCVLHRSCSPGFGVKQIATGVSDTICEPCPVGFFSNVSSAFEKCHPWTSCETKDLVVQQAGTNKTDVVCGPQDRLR
Experimental: (§1) Clear walled High Bind, 384-well plates (Corning, UK) were coated with 25 μl of 1 μg/ml Neutravidin in 0.2 M carbonate-bicarbonate buffer, pH 9.4 overnight at 4° C. The following day, assay plates were washed with 0.1% (v/v) Tween PBS buffer, blocked with 1% (w/v) BSA in PBS for 1 hour at room temperature and washed again. […] Following washing of the assay plate, the dAb:human CD40 complex was incubated in the assay plate at room temperature for 2 hours with gentle agitation. […] Absorbance signal was measured using a SpectraMax® M5e plate reader (Molecular Devices) at 450 nm following neutralization with 1M HCl solution.

EC50 | Binder
23 nM | B1
32 nM | B2
53 nM | B3
39 nM | B4
16 nM | B5
60 nM | B6
9 nM | B7
78 nM | B8
6 nM | B9
21 nM | B10
5.5 nM | B11
5.5 nM and 5.1 nM | B12
61 nM | B13
24.5 nM | B14
7 nM | B15
6.8 nM | B16
6.2 nM | B17
5 nM | B18
9.7 nM | B19
5.5 nM | B20
6.5 nM and 6.2 nM | B21
8.9 nM | B22
6.5 nM | B23
66 nM | B24
11.7 nM | B25
6.5 nM | B26
24.2 nM | B27

The binders below were run against T2, human CD40 (BMS, CY24FEB06-01) (human, UniProt P25942 21-193) (assay: ELISA RBA, competition with IZ-CD40L for soluble human CD40;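 note: Neutravidin-coated 384-well plates, dAb–human CD40 complex incubated 2 h at room temperature, read-out as absorbance at 450 nm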).
T2 construct: Soluble human CD40 reagent of the ELISA RBA
T2 sequence (P25942 21-193 limits assumed): as above
Experimental: as §1

EC50 | Binder
180 nM | B28
130 nM | B29
600 nM | B30
500 nM | B31
3000 nM | B32
170 nM | B33
525 nM | B34
100 nM | B35
270 nM | B36
170 nM | B37
114 nM | B38
140 nM | B39
100 nM | B40
160 nM | B41
3.4 nM | B42
5.5 nM | B43

EC50 | Binder
5.7 nM | B44
4.5 nM and 11.1 nM | B45
18.1 nM | B46
10.2 nM | B47
8.8 nM | B48
4.4 nM | B49
1.8 nM and 2.2 nM | B50
6.3 nM | B51
3 nM | B52
2 nM | B53
4.8 nM | B54
1.5 nM | B55
2.3 nM and 3.6 nM | B56
4.8 nM | B57
4 nM | B58
